In series [1] the target is T1, ComED58E D58E (Streptococcus pneumoniae D39) (UniProt A0A0H2ZLR3).
T1 sequence: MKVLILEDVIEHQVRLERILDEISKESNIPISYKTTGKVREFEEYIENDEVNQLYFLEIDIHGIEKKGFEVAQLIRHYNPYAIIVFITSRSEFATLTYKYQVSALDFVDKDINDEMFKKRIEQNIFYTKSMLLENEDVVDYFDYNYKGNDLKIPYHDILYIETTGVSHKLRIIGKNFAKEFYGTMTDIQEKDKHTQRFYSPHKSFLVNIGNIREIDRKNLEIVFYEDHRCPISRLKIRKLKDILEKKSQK
Description: EMSA. Particulars: EMSA: 1x LightShift binding buffer, 1 ug poly(dI-dC), 2.5% glycerol, 0.05% NP-40, 5 mM Mn2+, 5 mM Zn2+, 2-4 ug protein, 1 ng probe, 20 ul, 37 C, 30 min; pH not ….

The next series addresses CSP1 (UniProt P60243). Description: EMSA. Particulars: EMSA: 1x LightShift binding buffer, 1 ug poly(dI-dC), 2.5% glycerol, 0.05% NP-40, 5 mM Mn2+, 5 mM Zn2+, 2-4 ug protein, 1 ng probe, 20 ul, 37 C, 30 min; pH not …. (In general: Mobility shift assays separate free from complexed probe on a gel.)

Take “TACACATCTGCTTCTAAAATATTGTTAGAAAACGATTTGACTGTCCTGATCAATTTGTCATGTTCTTATTTCATTTTACTATATTTTTGGTTCGCGGGAAGTCTACTAAGATACTTAAAGATGCAGATAGTGAAAAAAGGTGTAGACATTACCGTAAAAAAGTGATATAATCGTAAGATGTTCAATGTATAGGTGTTAATCATGAGTAGACGTTTTAA (double strand) [C2 probe (cps promoter)]”: the binding result in series [1] is given as “binds”; with CSP1, “no binding”.

These data come from publication PMC5339220.
